Source: patent publication EP0459978B1, “CLASS I MHC MODULATION OF SURFACE RECEPTOR ACTIVITY” (THE REGENTS OF THE UNIVERSITY OF CALIFORNIA, priority 1989, dated 1997)

Assay: Peptide depletion (degradation or adsorption) during the experimental period, by HPLC and 125I-labeled peptide
Type: physicochemical
Conditions: HPLC and 125I-labeled peptide; concentrations above 0.1 )M

dynorphin A: control peptide purchased from Peninsula Laboratories
depletion (degradation or adsorption) during the experimental period: No significant depletion
